Target: mouse-derived mAb 735 (mo735) (mouse)
Test: SPR

Kd: 10.2 nM
Substance: chicken brain-derived polysialylated neural cell adhesion molecule (NCAM) (from UniProt P13590 20-711) (natural protein)

Source: publication PMC6467748
